In PMC7672554, “Selective Metal Ion Utilization Contributes to the Transformation of the Activity of Yeast Polymerase η from DNA Polymerization toward RNA Polymerization” (International Journal of Molecular Sciences, 2020):

Tests used:
Assay in all cases: steady-state primer extension, Cy3-labelled RNA primer/DNA template, gel quantitation
Assay type in all cases: biochemical, Saccharomyces cerevisiae
[1] = substrate: Nc1ccn([C@@H]2O[C@H](COP(=O)(O)OP(=O)(O)OP(=O)(O)O)[C@@H](O)[C@H]2O)c(=O)n1; conditions: RNA primer, template G (correct pair), 5 mM Mn2+, 20 nM primer/template, 25 mM Tris/HCl pH 7.5, 30 °C
From the text: (§1) steady-state primer extension, Cy3-labelled RNA primer/DNA template, gel quantitation on Polη (yeast Polymerase η)

[2] = substrate: Nc1nc2c(ncn2[C@@H]2O[C@H](COP(=O)(O)OP(=O)(O)OP(=O)(O)O)[C@@H](O)[C@H]2O)c(=O)[nH]1; conditions: RNA primer, template C (correct pair), 5 mM Mn2+, 20 nM primer/template, 25 mM Tris/HCl pH 7.5, 30 °C
From the text: as §1

[3] = substrate: Nc1ncnc2c1ncn2[C@@H]1O[C@H](COP(=O)(O)OP(=O)(O)OP(=O)(O)O)[C@@H](O)[C@H]1O; conditions: RNA primer, template T (correct pair), 5 mM Mn2+, 20 nM primer/template, 25 mM Tris/HCl pH 7.5, 30 °C
From the text: as §1

[4] = substrate: O=c1ccn([C@@H]2O[C@H](COP(=O)(O)OP(=O)(O)OP(=O)(O)O)[C@@H](O)[C@H]2O)c(=O)[nH]1; conditions: RNA primer, template A (correct pair), 5 mM Mn2+, 20 nM primer/template, 25 mM Tris/HCl pH 7.5, 30 °C
From the text: as §1

B1: Polη (yeast Polymerase η) (Saccharomyces cerevisiae S288C) (protein)
chain: MSKFTWKELIQLGSPSKAYESSLACIAHIDMNAFFAQVEQMRCGLSKEDPVVCVQWNSIIAVSYAARKYGISRMDTIQEALKKCSNLIPIHTAVFKKGEDFWQYHDGCGSWVQDPAKQISVEDHKVSLEPYRRESRKALKIFKSACDLVERASIDEVFLDLGRICFNMLMFDNEYELTGDLKLKDALSNIREAFIGGNYDINSHLPLIPEKIKSLKFEGDVFNPEGRDLITDWDDVILALGSQVCKGIRDSIKDILGYTTSCGLSSTKNVCKLASNYKKPDAQTIVKNDCLLDFLDCGKFEITSFWTLGGVLGKELIDVLDLPHENSIKHIRETWPDNAGQLKEFLDAKVKQSDYDRSTSNIDPLKTADLAEKLFKLSRGRYGLPLSSRPVVKSMMSNKNLRGKSCNSIVDCISWLEVFCAELTSRIQDLEQEYNKIVIPRTVSISLKTKSYEVYRKSGPVAYKGINFQSHELLKVGIKFVTDLDIKGKNKSYYPLTKLSMTITNFDIIDLQKTVVDMFGNQVHTFKSSAGKEDEEKTTSSKADEKTPKLECCKYQVTFTDQKALQEHADYHLALKLSEGLNGAEESSKNLSFGEKRLLFSRKRPNSQHTATPQKKQVTSSKNILSFFTRKK
notes: overexpressed in yeast as N-terminal GST fusion, GST removed with PreScission protease; no truncation stated
- Km [1]: 1.89 ± 0.42 µM
- kcat [1]: 0.078 ± 0.00367 s⁻¹
- kcat/Km [1]: 41300 M⁻¹ s⁻¹
- Km [2]: 2.55 ± 0.63 µM
- kcat [2]: 0.0845 ± 0.0045 s⁻¹
- kcat/Km [2]: 33200 M⁻¹ s⁻¹
- Km [3]: 2.51 ± 0.64 µM
- kcat [3]: 0.0435 ± 0.00233 s⁻¹
- kcat/Km [3]: 17300 M⁻¹ s⁻¹
- Km [4]: 12.8 ± 2.25 µM
- kcat [4]: 0.0585 ± 0.00317 s⁻¹
- kcat/Km [4]: 4500 M⁻¹ s⁻¹
